“Also recorded” adds a separate entry of the source. Marks after values point to notes of the source that are not given here.
How the values were obtained:
HPV-16 genome = experiment: qPCR sensitivity against HPV-16 copy number (known-copy HPV-16 DNA among 10 ng normal human DNA); conditions: for reaction under 10 copies of HPV-16 genome / reaction under 30 copies of HPV-16 genome: among 10 ng normal DNA, triplicate qPCR
HPV-16 [1] = experiment: qPCR on 20 ng DNA from saliva samples of HPV-HNSCC patients
Method: All samples were run in triplicates.
The sensitivity of detection from saliva 20 ng DNA samples is 32.1% (9/28) in E6 primer-probe sets, 42.9% (12/28) in E7 primer-probe sets, 35.7% (10/28) in “Min-5” primer-probe sets, 46.4% (13/28) in “Max-10” primer-probe sets. The sensitivity of combination of “5” and “10” is 50% (14/28) and that of E6 and E7 is 42.9% (12/28). By the standard curve analysis, the copy numbers that detected by “Max-10” primer-probe sets were the highest in these 4 primer-probe sets. The slope of standard curve is −3.5 in “Min-5” primer-probe sets when delta Rn is plotted against cycle threshold (FIG. 5).

HPV16 DNA [2] = experiment: CLIA test for HPV16, performance characteristics in plasma
From the text: (§1) These primer/probe sets were adapted for development of a CLIA test for HPV16 DNA detection in plasma and salivary rinses (Table 2). Test performance was improved, so that analytical sensitivity in salivary rinse spike in assays ranges from 2.5-5.0 DNA copies/mL with 100% specificity for the three primer/probe sets that are now part of the component assay, resulting in a five-fold improvement in analytic sensitivity that is in the range of sensitivity found in sequence based liquid biopsy methods (FIG. 23, Table 2). Additionally, the assays can be used quantitatively, with measuring ranges between 2.0 log10-7.0 log10 copies/mL.

HPV16 DNA [3] = experiment: CLIA test for HPV16, performance characteristics in salivary rinse
From the text: as §1

HPV DNA = experiment: CLIA HPV test pilot study on saliva rinse samples from HPV-positive HNSCC patients and non-cancer controls; set-up: species or system HPV16; HPV16 DNA measured by CLIA HPV test: unit not given here
Method: As a final validation, Applicants a small pilot study was performed on a blinded set of saliva rinse samples from 28 patients with HPV-positive HNSCC and 15 salivary rinses from non-cancer controls. […] The sensitivity increased to 96% when all three sets were used (Table 3).

HPV-16 [4] = experiment: qPCR sensitivity against HPV-HNSCC tumor samples diluted among 10 ng normal human DNA
Method: Quantitative real-time polymerase chain reaction (qRT-PCR) was used to examine the threshold in each experiment. qRT-PCR was performed using Quant Studio 6 Flex Real-Time PCR System (Thermo Fisher Scientific). All samples were run in triplicates. HPV-16 viral amplicon copy number estimations were developed using the CaSki cell line. After amplification of the amplicon by PCR, DNA concentration was calculated by weight NanoDrop®, then converted to DNA copy number by calculation based on the molecular weight of the double stranded amplicon. […] In the other 32 HPV-HNSCC cohort, Applicants diluted the tumor sample to 990 pg, 198 pg, 99 pg, 39.6 pg, 7.9 pg, 3.2 pg, and 1.6 pg of amount tumor weight, (correspond to 150, 30, 15, 6, 1.2, 0.6, and 0.3 cells: assumption that 1 tumor cell have 6.6 pg DNA (=3*10^9 (human DNA genome bp)*2 (diploid)*1.67*10^(−24) g (weight/Dalton))) combined with 10 ng normal leukocyte human DNA and compare the threshold of each primer-probe sets.
In this regard, Applicants investigated the other 32 HPV-HNSCC tumor samples. From the assumption that 1 cell tumor DNA contain 6.6 pg DNA, Applicants made the dilution series by DNA derived from normal lymphocyte as described and decide the threshold for each primer-probe set.
Furthermore, to determine whether these designed primer/probe sets also have a high sensitivity in a separate cohort, Applicants performed PCR in a validation cohort of 32 additional primary tumor samples with validated presence of HPV-16. Applicants prepared serial of dilutions of tumor DNA in normal lymphocyte DNA from non-cancer individuals and determined the threshold for each primer/probe set and defined amplification thresholds expressed in number of tumor cells for each sample (Table 5).

[5] = samples tested 3 times, 10 ng DNA from healthy individual
[6] = first template ('... HPV16', word is an image)
[7] = second template (name is an image)
[8] = tumor DNA dilution, fraction of 32 samples

B1: BR E1-5: HPV-16 E1 region primer/probe set, SEQ ID NO: 40-42 (same as SEQ ID NO: 1-3) (nucleic acid)
DNA 1: GCACAATTGGCAGACACTAAT
DNA 2: GCACAATCCTTTACAATTTTTGCC
DNA 3: AGTAATGCAAGTGCCTTTCTAAAAAGTAATTC
modifications: chemistry not given here
- reaction under 10 copies of HPV-16 genome (HPV-16 genome): consistent detection
- reaction under 30 copies of HPV-16 genome (HPV-16 genome): consistently amplified
- reaction under 10 copies of HPV-16 genome (HPV-16 genome; listed as Min-5): consistently triplicate reaction; also recorded: could detect
- reaction under 30 copies of HPV-16 genome (HPV-16 genome; listed as Min-5): react consistently
- number of reactions against 10 HPV-16 copies (HPV-16 genome; [5]): 3 reactions
- number of reactions under 30 HPV-16 copies (HPV-16 genome; [5]): 3 reactions
- sensitivity of detection from saliva 20 ng DNA samples (HPV-16 [1]; 28 HPV-HNSCC saliva samples): 35.7%
- slope of standard curve (delta Rn plotted against cycle threshold) (HPV-16 [1]; RT-PCR, 20 ng DNA from HPV-HNSCC saliva samples (FIG. 5)): −3.5
- Accuracy - Plasma Blind Panel, Negative % Agreement (HPV16 DNA [2]): 100%
- Accuracy - Plasma Blind Panel, Positive % Agreement (HPV16 DNA [2]): 100%
- Accuracy - Plasma Blind Panel, Total % Agreement (HPV16 DNA [2]): 100%
- Measuring Range - Plasma (HPV16 DNA [2]; first template ('... HPV16')): 2.0-8.5 log10 log10 copies/mL
- Limit of Detection - Plasma (HPV16 DNA [2]; [6]): 1.5 copies/mL
- Limit of Detection - Plasma (HPV16 DNA [2]; [7]): 22 copies/mL
- Measuring Range - Plasma (HPV16 DNA [2]; [7]): 2.0-6.5 log10 log10 copies/mL
- Measuring Range - Salivary Rinse (HPV16 DNA [3]; first template ('... HPV16')): 2.0-8.5 log10 log10 copies/mL
- Limit of Detection - Salivary rinse (HPV16 DNA [3]; [6]): 3 copies/mL
- Limit of Detection - Salivary rinse (HPV16 DNA [3]; [7]): 12 copies/mL
- Measuring Range - Salivary Rinse (HPV16 DNA [3]; [7]): 2.0-6.5 log10 log10 copies/mL
- sensitivity for the detection of HPV DNA in saliva rinse samples (HPV DNA; 28 patients with HPV-positive HNSCC): 79%
- HPV16 DNA measured by CLIA HPV test (HPV DNA; saliva sample from HPV-HNSCC patient # 1): 866000
- HPV16 DNA measured by CLIA HPV test (HPV DNA; saliva sample from HPV-HNSCC patient # 2): 118000
- HPV16 DNA measured by CLIA HPV test (HPV DNA; saliva sample from HPV-HNSCC patient # 3): 47600
- HPV16 DNA measured by CLIA HPV test (HPV DNA; saliva sample from HPV-HNSCC patient # 4): 104000
- HPV16 DNA measured by CLIA HPV test (HPV DNA; saliva sample from HPV-HNSCC patient # 7): 9790
- HPV16 DNA measured by CLIA HPV test (HPV DNA; saliva sample from HPV-HNSCC patient # 8): 3590
- HPV16 DNA measured by CLIA HPV test (HPV DNA; saliva sample from HPV-HNSCC patient # 9): 2600
- HPV16 DNA measured by CLIA HPV test (HPV DNA; saliva sample from HPV-HNSCC patient # 12): 127
- HPV16 DNA measured by CLIA HPV test (HPV DNA; saliva sample from HPV-HNSCC patient # 13): 290
- HPV16 DNA measured by CLIA HPV test (HPV DNA; saliva sample from HPV-HNSCC patient # 14): 114
- HPV16 DNA measured by CLIA HPV test (HPV DNA; saliva sample from HPV-HNSCC patient # 15): 160
- HPV16 DNA measured by CLIA HPV test (HPV DNA; saliva sample from HPV-HNSCC patient # 16): 121
- HPV16 DNA measured by CLIA HPV test (HPV DNA; saliva sample from HPV-HNSCC patient # 17): 67.4
- HPV16 DNA measured by CLIA HPV test (HPV DNA; saliva sample from HPV-HNSCC patient # 18): 15.8
- HPV16 DNA measured by CLIA HPV test (HPV DNA; saliva sample from HPV-HNSCC patient # 19): 61.1
- HPV16 DNA measured by CLIA HPV test (HPV DNA; saliva sample from HPV-HNSCC patient # 20): 30.9
- HPV16 DNA measured by CLIA HPV test (HPV DNA; saliva sample from HPV-HNSCC patient # 21): 25.7
- HPV16 DNA measured by CLIA HPV test (HPV DNA; saliva sample from HPV-HNSCC patient # 22): 2.68
- HPV16 DNA measured by CLIA HPV test (HPV DNA; saliva sample from HPV-HNSCC patient # 23): 1.82
- HPV16 DNA measured by CLIA HPV test (HPV DNA; saliva sample from HPV-HNSCC patient # 24): 14.4
- HPV16 DNA measured by CLIA HPV test (HPV DNA; saliva sample from HPV-HNSCC patient # 25): 2.76
- HPV16 DNA measured by CLIA HPV test (HPV DNA; saliva sample from HPV-HNSCC patient # 27): 2.17
- sensitivity under 100 cells (HPV-16 [4]; 32 HPV-HNSCC tumor samples): 96.9%
- sensitivity under single cells (HPV-16 [4]; 32 HPV-HNSCC tumor samples, 6.6 pg DNA): 28.1%
- sensitivity under 10 cells (HPV-16 [4]; 32 HPV-HNSCC tumor samples, 66 pg DNA): 68.7%
- Threshold of tumor cell numbers for HPV-16 detection (HPV-16 [4]; Sample # 1): 60.0 tumor cells
- Threshold of tumor cell numbers for HPV-16 detection (HPV-16 [4]; Sample # 2): 150.0 tumor cells
- Threshold of tumor cell numbers for HPV-16 detection (HPV-16 [4]; Sample # 3): 30.0 tumor cells
- Threshold of tumor cell numbers for HPV-16 detection (HPV-16 [4]; Sample # 4): 6.0 tumor cells
- Threshold of tumor cell numbers for HPV-16 detection (HPV-16 [4]; Sample # 5): 6.0 tumor cells
- Threshold of tumor cell numbers for HPV-16 detection (HPV-16 [4]; Sample # 6): 15.0 tumor cells
- Threshold of tumor cell numbers for HPV-16 detection (HPV-16 [4]; Sample # 7): 30.0 tumor cells
- Threshold of tumor cell numbers for HPV-16 detection (HPV-16 [4]; Sample # 8): 30.0 tumor cells
- Threshold of tumor cell numbers for HPV-16 detection (HPV-16 [4]; Sample # 9): 1.2 tumor cells
- Threshold of tumor cell numbers for HPV-16 detection (HPV-16 [4]; Sample # 10): 6.0 tumor cells
- Threshold of tumor cell numbers for HPV-16 detection (HPV-16 [4]; Sample # 11): 30.0 tumor cells
- Threshold of tumor cell numbers for HPV-16 detection (HPV-16 [4]; Sample # 12): 30.0 tumor cells
- Threshold of tumor cell numbers for HPV-16 detection (HPV-16 [4]; Sample # 13): 6.0 tumor cells
- Threshold of tumor cell numbers for HPV-16 detection (HPV-16 [4]; Sample # 14): 6.0 tumor cells
- Threshold of tumor cell numbers for HPV-16 detection (HPV-16 [4]; Sample # 15): 6.0 tumor cells
- Threshold of tumor cell numbers for HPV-16 detection (HPV-16 [4]; Sample # 16): 6.0 tumor cells
- Threshold of tumor cell numbers for HPV-16 detection (HPV-16 [4]; Sample # 17): 1.2 tumor cells
- Threshold of tumor cell numbers for HPV-16 detection (HPV-16 [4]; Sample # 18): 0.2 tumor cells
- Threshold of tumor cell numbers for HPV-16 detection (HPV-16 [4]; Sample # 19): 1.2 tumor cells
- Threshold of tumor cell numbers for HPV-16 detection (HPV-16 [4]; Sample # 20): 3.0 tumor cells
- Threshold of tumor cell numbers for HPV-16 detection (HPV-16 [4]; Sample # 21): 0.6 tumor cells
- Threshold of tumor cell numbers for HPV-16 detection (HPV-16 [4]; Sample # 22): 0.3 tumor cells
- Threshold of tumor cell numbers for HPV-16 detection (HPV-16 [4]; Sample # 23): 1.2 tumor cells
- Threshold of tumor cell numbers for HPV-16 detection (HPV-16 [4]; Sample # 24): 0.6 tumor cells
- Threshold of tumor cell numbers for HPV-16 detection (HPV-16 [4]; Sample # 25): 0.3 tumor cells
- Threshold of tumor cell numbers for HPV-16 detection (HPV-16 [4]; Sample # 26): 0.6 tumor cells
- Threshold of tumor cell numbers for HPV-16 detection (HPV-16 [4]; Sample # 27): 0.6 tumor cells
- Threshold of tumor cell numbers for HPV-16 detection (HPV-16 [4]; Sample # 28): 0.6 tumor cells
- Threshold of tumor cell numbers for HPV-16 detection (HPV-16 [4]; Sample # 29): 1.0 tumor cells
- Threshold of tumor cell numbers for HPV-16 detection (HPV-16 [4]; Sample # 30): 15.0 tumor cells
- Threshold of tumor cell numbers for HPV-16 detection (HPV-16 [4]; Sample # 31): 0.6 tumor cells
- Threshold of tumor cell numbers for HPV-16 detection (HPV-16 [4]; Sample # 32): 15.0 tumor cells
- Sensitivity, 1 cell (HPV-16 [4]; [8]): 0.281*
- Sensitivity, 3 cells (HPV-16 [4]; [8]): 0.438
- Sensitivity, 10 cells (HPV-16 [4]; [8]): 0.688
- Sensitivity, 30 cells (HPV-16 [4]; [8]): 0.938*
- Sensitivity, 100 cells (HPV-16 [4]; [8]): 0.969*

— patent US20200399712A1, “COMPOSITIONS AND METHODS FOR THE DIAGNOSIS AND DETECTION OF TUMORS AND CANCER PROGNOSIS” (priority 2018, published 2020)
